Source: article PMC6624267, “Structures of autoinhibited and polymerized forms of CARD9 reveal mechanisms of CARD9 and CARD11 activation” (Nature Communications, 2019)

Legend:
[1] = target: the molecule itself; test: negative-stain EM; CARD11^8−109 WT or mutants at 250 μM or 500 μM, 2 h at 25 °C, 50 mM HEPES, 50 mM NaCl, 0.5 mM TCEP, pH 7.0
[2] = target: the molecule itself; test: absorbance at 350 nm + other: negative-stain EM; CARD9^2−97 polymerisation: 1:1 Zn2+-bound CARD, EDTA added at t = 0; 50 mM Tris, 150 mM NaCl, 0.5 mM TCEP, pH 7.0, 25 °C, shaking; NS-EM grids at 90 min
[3] = target: the molecule itself; test: negative-stain EM; CARD9^2–152 constructs purified 1:1 with Zn2+, Zn2+ removed with a twofold excess of EDTA, incubated at the indicated concentration, time and temperature; 50 mM HEPES, 150 mM NaCl, 0.5 mM TCEP, pH 7.0; step: dimers to filaments
[4] = target: the molecule itself; test: NMR solution structure; CARD9^2−142 dimer, 1 mM with 1:1 ZnCl2, 50 mM HEPES, 300 mM NaCl, 0.5 mM TCEP, pH 7.0, 37 °C; intermolecular NOEs from a mixed labelled/unlabelled sample, RDCs

B1: CARD11^8−109 (CARD11 CARD), wild type (domain or fragment, human, UniProt Q9BXL7 8-109, looked up)
chain: MDDYMETLKDEEDALWENVECNRHMLSRYINPAKLTPYLRQCKVIDEQDEDEVLNAPMLPSKINRAGRLLDILHTKGQRGYVVFLESLEFYYPELYKLVTGK
notes: CARD11 (CARMA1), human, residues 8-109 (CARD); also called WT CARD11 CARD; source: E. coli BL21(DE3), purified (Ni-NTA, TEV, Superdex 75); not shown: 6xHis, N-terminal, cleaved
[1]
  binding result: binds

B2: CARD9^2−97 (CARD9 CARD alone), wild type (domain or fragment, human, UniProt Q9H257 2-97, looked up)
chain: SDYENDDECWSVLEGFRVTLTSVIDPSRITPYLRQCKVLNPDDEEQVLSDPNLVIRKRKVGVLLDILQRTGHKGYVAFLESLELYYPQLYKKVTGK
notes: CARD9, human, residues 2-97 (CARD); polymerisation started by EDTA; also called CARD9^2−97/WT; source: E. coli BL21(DE3), purified (Ni-NTA, TEV, Superdex 75); not shown: 6xHis, N-terminal, cleaved
[2]
  binding result: binds

B3: CARD9^2−97/D43R/K58D (domain or fragment, human, UniProt Q9H257 2-97, looked up)
chain: SDYENDDECWSVLEGFRVTLTSVIDPSRITPYLRQCKVLNPRDEEQVLSDPNLVIRDRKVGVLLDILQRTGHKGYVAFLESLELYYPQLYKKVTGK
notes: CARD9, human, residues 2-97 (CARD); also called charge-swap mutant of the Type III interface; source: E. coli BL21(DE3), purified (Ni-NTA, TEV, Superdex 75; insoluble mutants under denaturing conditions); not shown: 6xHis, N-terminal, cleaved
[2]
  binding result: binds

B4: CARD9^2−152/L115I (domain or fragment, human, UniProt Q9H257 2-152, looked up)
chain: SDYENDDECWSVLEGFRVTLTSVIDPSRITPYLRQCKVLNPDDEEQVLSDPNLVIRKRKVGVLLDILQRTGHKGYVAFLESLELYYPQLYKKVTGKEPARVFSMIIDASGESGITQLLMTEVMKLQKKVQDLTALLSSKDDFIKELRVKDS
notes: not shown: 6xHis, N-terminal, cleaved
[3]
  binding result: binds

B5: CARD9^2−142 (domain or fragment, human, UniProt Q9H257 2-142, looked up)
chain: SDYENDDECWSVLEGFRVTLTSVIDPSRITPYLRQCKVLNPDDEEQVLSDPNLVIRKRKVGVLLDILQRTGHKGYVAFLESLELYYPQLYKKVTGKEPARVFSMIIDASGESGLTQLLMTEVMKLQKKVQDLTALLSSKDD
notes: Isotope-labelled samples with 1:1 ZnCl2 for NMR; not shown: 6xHis, N-terminal, cleaved
[4]
  binding result: binds
